Assay results as given in patent publication US20100061996A1.

Key:
Assay in all cases: cell-based or functional assay
[1] = target: full-length hepsin on the surface of LnCaP-34 cells (transfected full-length hepsin with C-terminal Flag tag plus endogenous hepsin) (human) (UniProt P05981)
[2] = target: endogenous full-length hepsin on the surface of LnCaP-17 cells (human) (UniProt P05981)
[3] = target: pro-uPA (pro-urokinase-type plasminogen activator, single-chain zymogen form of uPA) (UniProt P00749)

Sequence of full-length hepsin on the surface of LnCaP-34 cells (transfected full-length hepsin with C-terminal Flag tag plus endogenous hepsin) (human) (P05981 whole entry): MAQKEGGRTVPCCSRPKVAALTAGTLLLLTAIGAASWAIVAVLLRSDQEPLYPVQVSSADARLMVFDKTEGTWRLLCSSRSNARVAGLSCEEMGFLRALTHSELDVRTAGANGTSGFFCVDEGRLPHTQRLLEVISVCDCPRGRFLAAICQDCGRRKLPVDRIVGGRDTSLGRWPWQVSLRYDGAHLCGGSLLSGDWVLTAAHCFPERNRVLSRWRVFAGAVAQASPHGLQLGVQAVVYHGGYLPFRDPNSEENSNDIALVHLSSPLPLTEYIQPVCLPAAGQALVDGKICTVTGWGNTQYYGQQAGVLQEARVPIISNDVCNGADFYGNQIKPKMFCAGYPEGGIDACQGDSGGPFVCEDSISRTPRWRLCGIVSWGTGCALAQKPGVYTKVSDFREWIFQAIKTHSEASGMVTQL
Sequence of endogenous full-length hepsin on the surface of LnCaP-17 cells (human) (P05981 whole entry): as above

Substance: KD1, Kunitz domain-1 derived from HAI-1B (from UniProt O43278 246-303)
- Rate of pro-uPA activation per 10^6 cells, LnCaP-34, with 1 uM KD1 [1]: 0.2 nM uPA hr^-1
- Rate of pro-uPA activation per 10^6 cells, LnCaP-17, with 1 uM KD1 [2]: 0.2 nM uPA hr^-1

Substance: endogenous full-length hepsin on the surface of LnCaP-17 cells (from UniProt P05981 1-417) (enzyme)
- Rate of pro-uPA activation per 10^6 cells, LnCaP-17, control [3]: 2.4 nM uPA hr^-1

Substance: full-length hepsin on the surface of LnCaP-34 cells (transfected full-length hepsin with C-terminal Flag tag plus endogenous hepsin) (from UniProt P05981 1-417) (enzyme)
- Rate of pro-uPA activation per 10^6 cells, LnCaP-34, control [3]: 6.6 nM uPA hr^-1
